Target: the molecule itself
Experiment: thioflavin T fluorescence of in vitro polymerisation; CAF domains 30 uM polymerised at 37 C with shaking at 200 rpm; ThT added at each time point; excitation 444 nm, emission 480 nm

B1: CAF domain (residues 148-223) of G175S human PMEL (domain or fragment, UniProt P40967 148-223, looked up)
chain: SFVYVWKTWGQYWQVLGGPVSGLSIGTSRAMLGTHTMEVTVYHRRGSRSYVPLAHSSSAFTITDQVPFSVSVSQLR
notes: PMEL, human, CAF (core amyloid-forming) domain, residues 148-223, with the G175S mutation linked to pigment dispersion syndrome; Polymerised in vitro in 150 mM sodium acetate pH 4.4 into two-protofilament fibrils; also called G175S CAF domain; G175S mutant; source: E. coli BL21 (DE3), pET24a, inclusion bodies, purified (Ni-NTA in 8M urea)
fold final yield of polymerized amyloids against the wild type: ~4 fold
fold rate of polymerisation against the wild type: ~4 fold

From paper doi:10.1101/2024.12.09.627633 (bioRxiv, 2024)
